Assay results from the supplement of paper PMC11246515.
± gives the standard deviation of the averaged measurements.

Experiment: total protein half-life in vivo (active degradation + dilution); higher = more stable protein
[1] = E. coli NCM3722 delta-clpP delta-lon delta-hslV, growth: N-lim chemostat, doubling time 6 h
[2] = E. coli NCM3722 delta-clpP, growth: N-lim chemostat, doubling time 6 h
[3] = E. coli NCM3722 delta-hslV, growth: N-lim chemostat, doubling time 6 h
[4] = E. coli NCM3722 delta-lon, growth: N-lim chemostat, doubling time 6 h
[5] = E. coli NCM3722 delta-smpB, growth: N-lim chemostat, doubling time 6 h
[6] = wild type E. coli NCM3722, growth: C-lim chemostat, doubling time 3 h
[7] = wild type E. coli NCM3722, growth: C-lim chemostat, doubling time 6 h
[8] = wild type E. coli NCM3722, growth: C-lim chemostat, doubling time 12 h
[9] = wild type E. coli NCM3722, growth: N-lim chemostat, doubling time 6 h
[10] = wild type E. coli NCM3722, growth: N-lim chemostat, doubling time 12 h
[11] = wild type E. coli NCM3722, growth: P-lim chemostat, doubling time 6 h
[12] = wild type E. coli NCM3722, growth: P-lim chemostat, doubling time 12 h

Sequence | total protein half-life in vivo [1] [h] | total protein half-life in vivo [2] [h] | total protein half-life in vivo [3] [h] | total protein half-life in vivo [4] [h] | total protein half-life in vivo [5] [h] | total protein half-life in vivo [6] [h] | total protein half-life in vivo [7] [h] | total protein half-life in vivo [8] [h] | total protein half-life in vivo [9] [h] | total protein half-life in vivo [10] [h] | total protein half-life in vivo [11] [h] | total protein half-life in vivo [12] [h]
MIYPDEAMLYAPVEWHDCSEGFEDIRYEKSTDGIAKITINRPQVRNAFRPLTVKEMIQALADARYDDNIGVIILTGAGDKAFCSGGDQKVRGDYGGYKDDSGVHHLNVLDFQRQIRTCPKPVVAMVAGYSIGGGHVLHMMCDLTIAADNAIFGQTGPKVGSFDGGWGASYMARIVGQKKAREIWFLCRQYDAKQALDMGLVNTVVPLADLEKETVRWCREMLQNSPMALRCLKAALNADCDGQAGLQELAGNATMLFYMTEEGQEGRNAFNQKRQPDFSKFKRNP [P0ABU0] | 4.73 ± 0.74 | 4.048 ± 0.036 | 4.15 ± 0.17 | 4.48 ± 0.44 | 3.8 ± 0.061 | 2.9 ± 0.51 | 5.55 ± 0.53 | 9.64 ± 0.8 | 3.88 ± 0.12 | 6.07 ± 0.33 | 5.58 ± 0.069 | 10.85 ± 0.06
MKAARQQAIVDLLLNHTSLTTEALSEQLKVSKETIRRDLNELQTQGKILRNHGRAKYIHRQNQDSGDPFHIRLKSHYAHKADIAREALAWIEEGMVIALDASSTCWYLARQLPDINIQVFTNSHPICHELGKRERIQLISSGGTLERKYGCYVNPSLISQLKSLEIDLFIFSCEGIDSSGALWDSNAINADYKSMLLKRAAQSLLLIDKSKFNRSGEARIGHLDEVTHIISDERQVATSLVTA [P0ACK8] | 4.82 ± 0.058 | 2.74 ± 0.14 |  |  | 0.618 | 0.695 ± 0.079 | 1.09 | 1.36 ± 0.31 | 1.3 | 0.218 |  | 
MKAFDLHRMAFDKVPFDFLGEVALRSLYTFVLVFLFLKMTGRRGVRQMSLFEVLIILTLGSAAGDVAFYDDVPMVPVLIVFITLALLYRLVMWLMAHSEKLEDLLEGKPVVIIEDGELAWSKLNNSNMTEFEFFMELRLRGVEQLGQVRLAILETNGQISVYFFEDDKVKPGLLILPSDCTQRYKVVPESADYACIRCSEIIHMKAGEKQLCPRCANPEWTKASRAKRVT | 6.22 ± 1.1 | 6.17 | 5.53 | 5.11 ± 0.43 | 5.8 ± 0.11 |  | > 8 | 11.8 |  | > 16 |  | 12.1 ± 0.66
MKAILIPFLSLLIPLTPQSAFAQSEPELKLESVVIVSRHGVRAPTKATQLMQDVTPDAWPTWPVKLGWLTPRGGELIAYLGHYQRQRLVADGLLAKKGCPQSGQVAIIADVDERTRKTGEAFAAGLAPDCAITVHTQADTSSPDPLFNPLKTGVCQLDNANVTDAILSRAGGSIADFTGHRQTAFRELERVLNFPQSNLCLKREKQDESCSLTQALPSELKVSADNVSLTGAVSLASMLTEIFLLQQAQGMPEPGWGRITDSHQWNTLLSLHNAQFYLLQRTPEVARSRATPLLDLIKTALTPHPPQKQAYGVTLPTSVLFIAGHDTNLANLGGALELNWTLPGQPDNTPPGGELVFERWRRLSDNSQWIQVSLVFQTLQQMRDKTPLSLNTPPGEVKLTLAGCEERNAQGMCSLAGFTQIVNEARIPACSL | 5.24 ± 0.47 | 5.26 ± 0.056 | 6.56 ± 0.62 | 6.26 ± 0.8 | 5.84 ± 0.11 | 3.02 ± 0.21 |  | 11.6 ± 0.68 | 5.94 ± 0.28 | 12.6 ± 0.49 | 5.7 ± 0.15 | 11.9 ± 0.49
MKALARFGKAFGGYKMIDVPQPMCGPEDVVIEIKAAAICGADMKHYNVDSGSDEFNSIRGHEFAGCIAQVGEKVKDWKVGQRVVSDNSGHVCGVCPACEQGDFLCCTEKVNLGLDNNTWGGGFSKYCLVPGEILKIHRHALWEIPDGVDYEDAAVLDPICNAYKSIAQQSKFLPGQDVVVIGTGPLGLFSVQMARIMGAVNIVVVGLQEDVAVRFPVAKELGATAVVNGSTEDVVARCQQICGKDNLGLVIECSGANIALKQAIEMLRPNGEVVRVGMGFKPLDFSINDITAWNKSIIGHMAYDSTSWRNAIRLLASGAIKVKPMITHRIGLSQWREGFDAMVDKTAIKVIMTYDFDE |  |  |  | 4.04 |  | 1.33 | 2.23 | 3.7 ± 0.86 |  |  |  | 5.73
MKALSKLKAEEGIWMTDVPVPELGHNDLLIKIRKTAICGTDVHIYNWDEWSQKTIPVPMVVGHEYVGEVVGIGQEVKGFKIGDRVSGEGHITCGHCRNCRGGRTHLCRNTIGVGVNRPGCFAEYLVIPAFNAFKIPDNISDDLAAIFDPFGNAVHTALSFDLVGEDVLVSGAGPIGIMAAAVAKHVGARNVVITDVNEYRLELARKMGITRAVNVAKENLNDVMAELGMTEGFDVGLEMSGAPPAFRTMLDTMNHGGRIAMLGIPPSDMSIDWTKVIFKGLFIKGIYGREMFETWYKMAALIQSGLDLSPIITHRFSIDDFQKGFDAMRSGQSGKVILSWD | 4.87 ± 0.096 | 5 ± 0.21 | 5.96 ± 1.6 | 5.24 ± 0.061 | 4.44 ± 0.18 | 2.439 ± 0.022 | 4.37 ± 0.59 | 9.68 ± 1.8 | 4.85 ± 0.16 | 8.68 ± 0.96 | 6.2 ± 0.19 | 12.6 ± 0.36
MKALSPIAVLISALLLQGCVAAAVVGTAAVGTKAATDPRSVGTQVDDGTLEVRVNSALSKDEQIKKEARINVTAYQGKVLLVGQSPNAELSARAKQIAMGVDGANEVYNEIRQGQPIGLGEASNDTWITTKVRSQLLTSDLVKSSNVKVTTENGEVFLMGLVTEREAKAAADIASRVSGVKRVTTAFTFIK | 5.42 ± 0.59 |  | 6.43 ± 0.3 | 6.34 ± 0.34 | 5.71 ± 0.1 | 3.05 ± 0.21 | 5.72 ± 0.47 | 10.5 ± 1.7 | 5.86 ± 0.3 | 11.9 ± 0.14 | 5.78 ± 0.22 | 12.3 ± 0.21
MKATSEELAIFVSVVESGSFSRAAEQLGQANSAVSRAVKKLEMKLGVSLLNRTTRQLSLTEEGERYFRRVQSILQEMAAAESEIMETRNTPRGLLRIDAATPVVLHFLMPLIKPFRERYPEVTLSLVSSETIINLIERKVDVAIRAGTLTDSSLRARPLFNSYRKIIASPDYISRYGKPETIDDLKQHICLGFTEPASLNTWPIARSDGQLHEVKYGLSSNSGETLKQLCLSGNGIACLSDYMIDKEIARGELVELMADKVLPVEMPFSAVYYSDRAVSTRIRAFIDFLSEHVKTAPGGAVREA | 6.4 ± 0.2 |  | 5.5 ± 1.2 | 5.97 ± 0.94 | 5.67 ± 0.07 | 3.33 ± 0.26 | 5.1 ± 0.3 | 12.7 ± 0.46 | 6.02 ± 0.12 | 11.3 ± 0.32 | 5.75 ± 0.71 | 12 ± 1.9
MKCKRLNEVIELLQPAWQKEPDLNLLQFLQKLAKESGFDGELADLTDDILIYHLKMRDSAKDAVIPGLQKDYEEDFKTALLRARGVIKE [P0ADP9] | 6.97 ± 1.2 | 4.97 ± 0.93 | 3.81 ± 0.33 | 3.98 ± 0.12 | 3.12 ± 0.3 |  | 4.76 ± 0.47 | 7.3 ± 1.9 | 2.74 ± 0.051 | 8.19 ± 5.8 | 5.01 ± 1.1 | 11.2 ± 0.38
MKDVVDKCSTKGCAIDIGTVIDNDNCTSKFSRFFATREEAESFMTKLKELAAATSSADEGASVAYKIKDLEGQVELDAAFTFSCQAEMIIFELSLRSLA | 5.09 ± 0.21 | 4.2 | 2.6 ± 0.38 | 2.85 ± 0.098 | 2.09 ± 0.23 | 2.11 ± 0.4 | 4.95 ± 1.9 | 5.78 ± 0.33 | 2.26 ± 0.19 | 3.38 ± 0.55 | 4 ± 0.22 | 7.6436 ± 0.0046
MKEKPAVEVRLDKWLWAARFYKTRALAREMIEGGKVHYNGQRSKPSKIVELNATLTLRQGNDERTVIVKAITEQRRPASEAALLYEETAESVEKREKMALARKLNALTMPHPDRRPDKKERRDLLRFKHGDSE [P0ACG8] | 6.23 ± 0.21 |  |  | 5.39 | 3.67 | 2.91 | 5.7 ± 1.5 | 6.7 | 4.16 | 6.59 |  | 7.24
MKESNSRREFLSQSGKMVTAAALFGTSVPLAHAAVAGTLNCEANNTMKITDPHYYLDNVLLETGFDYENGVAVQTRTARQTVEIQDGKIVALRENKLHPDATLPHYDAGGKLMLPTTRDMHIHLDKTFYGGPWRSLNRPAGTTIQDMIKLEQKMLPELQPYTQERAEKLIDLLQSKGTTIARSHCNIEPVSGLKNLQNLQAVLARRQAGFECEIVAFPQHGLLLSKSEPLMREAMQAGAHYVGGLDPTSVDGAMEKSLDTMFQIALDYDKGVDIHLHETTPAGVAAINYMVETVEKTPQLKGKLTISHAFALATLNEQQVDELANRMVVQQISIASTVPIGTLHMPLKQLHDKGVKVMTGTDSVIDHWSPYGLGDMLEKANLYAQLYIRPNEQNLSRSLFLATGDVLPLNEKGERVWPKAQDDASFVLVDASCSAEAVARISPRTATFHKGQLVWGSVAG | 4.64 ± 0.15 | 4.34 ± 0.53 | 4.51 ± 0.31 | 4.82 ± 0.11 | 3.937 ± 0.008 | 3.21 ± 0.41 |  | 9.95 ± 0.62 | 4.32 ± 0.17 | 6.843 ± 0.056 | 5.67 ± 0.43 | 11.53 ± 0.036
MKFELDTTDGRARRGRLVFDRGVVETPCFMPVGTYGTVKGMTPEEVEATGAQIILGNTFHLWLRPGQEIMKLHGDLHDFMQWKGPILTDSGGFQVFSLGDIRKITEQGVHFRNPINGDPIFLDPEKSMEIQYDLGSDIVMIFDECTPYPADWDYAKRSMEMSLRWAKRSRERFDSLGNKNALFGIIQGSVYEDLRDISVKGLVDIGFDGYAVGGLAVGEPKADMHRILEHVCPQIPADKPRYLMGVGKPEDLVEGVRRGIDMFDCVMPTRNARNGHLFVTDGVVKIRNAKYKSDTGPLDPECDCYTCRNYSRAYLHHLDRCNEILGARLNTIHNLRYYQRLMAGLRKAIEEGKLESFVTDFYQRQGREVPPLNVD [P0A847] | 5.511 ± 0.011 | 5.15 ± 0.27 | 4.74 ± 0.42 |  | 4.12 ± 0.42 | 3.176 ± 0.02 | 6.4 ± 0.068 | 10.9 ± 0.33 | 5.08 ± 0.26 | 9.05 ± 0.3 | 6.03 ± 0.7 | 13.7 ± 1.2
